The source of these data is US20090081724A1.

For test [1], the target named is AD-CaM (Calmodulin, encoded by the CALM2 gene, fused to the activation domain) (human) (UniProt P0DP24). Briefly: cell-based or functional assay.
Test [2] shares this target. The test can be described thus: yeast two-hybrid, CPRG β-gal assay, against DB-Q2C wt.

DB-KCNQ2 wild-type (wt) C-term BAIT, sequence (O43526 other isoform, or with tags, fused parts or gaps limits assumed): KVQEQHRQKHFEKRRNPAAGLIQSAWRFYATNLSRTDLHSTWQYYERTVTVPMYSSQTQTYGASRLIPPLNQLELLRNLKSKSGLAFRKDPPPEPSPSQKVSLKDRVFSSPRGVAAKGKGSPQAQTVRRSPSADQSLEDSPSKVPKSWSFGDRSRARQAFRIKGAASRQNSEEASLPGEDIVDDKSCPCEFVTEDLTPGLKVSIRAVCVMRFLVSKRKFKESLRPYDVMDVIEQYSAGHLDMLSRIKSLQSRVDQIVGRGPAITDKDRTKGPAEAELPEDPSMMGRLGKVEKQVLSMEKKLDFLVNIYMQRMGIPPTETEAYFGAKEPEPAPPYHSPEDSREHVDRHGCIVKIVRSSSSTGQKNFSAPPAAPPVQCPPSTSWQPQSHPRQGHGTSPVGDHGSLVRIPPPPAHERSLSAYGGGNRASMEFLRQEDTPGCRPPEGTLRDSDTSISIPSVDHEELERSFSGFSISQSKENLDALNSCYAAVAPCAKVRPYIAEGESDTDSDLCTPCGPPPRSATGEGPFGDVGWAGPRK

Regarding “DB-KCNQ2 wild-type (wt) C-term BAIT (from UniProt O43526 319-872)”, the units of β-gal activity (CPRG assay, liquid culture) (units β-gal activity) in test [1] worked out at 0.05.

In test [2], “DB-Q2C L619R mutant (from UniProt O43526 319-872)” registered a fold increase in CaM binding affinity against wt of 5 fold. Besides, the units of β-gal activity (CPRG assay, liquid culture) (units β-gal activity) in test [1] worked out at 0.26.
